This is an account of results in US8703913B2, “Sensor” (Medical Research Council, priority 2008, dated 2014).

Changes are numbered by the printed parent chain. Numbers in names are those of the source. Read-outs that look alike come from different tables or passages of the source. Where only a bound is given, the exact number is not on record here.

For data set [1] the following is noted: 37° C.; reported (16); cited from earlier work.
For data set [2] the following is noted: reported (19); read-out: dissociation constant for ethenoADP; cited from earlier work.
For data set [3] the following is noted: reported (19), cited from earlier work.
Data set [4] can be described thus: Fluorescence titration of labeled ParM with ADP. To be noted: Table 2, 20° C.; for ADP F+ADP/F−ADP: MDCC-ParM mutants; for Kd: fluorescence titration. Format: binding. The procedure: MDCC fluorescence was excited at 431 nm and detected at 474 nm, for the rhodamine-labeled proteins, excitation and emission wavelengths of 553 nm and 578 nm were used. […] The fraction of ParM bound to ADP was calculated from the fluorescence intensities.
The MDCC fluorescence was excited at 431 nm and emission was recorded at 474 nm. The equilibrium dissociation constants were determined by fitting a quadratic binding curve to the data.
(§1) The equilibrium dissociation constants were determined by fitting a quadratic binding curve to the data and are listed in Table Y. For the plot the experimental fluorescence intensities were normalized to the maximal fluorescence change obtained at saturation with ADP.
(§2) [formula] where [P] and [L] are the total concentrations of protein and ligand, respectively, Kd is the dissociation constant and Fmin and Fmax are the fluorescence intensities of the free and ligand bound protein.
(§3) Fluorescence spectra and titrations were measured in a Cary Eclipse spectrofluorimeter (Varian). Excitation and emission spectra were recorded with 5 nm slit width at emission and excitation wavelength of 576 nm and 553 nm, respectively. In titration experiments rhodamine fluorescence was measured at the same excitation/emission wavelength. Titration data were analyzed with a quadratic binding curve using the program Grafit 5.0 (7).

The nature of data set [5]: Fluorescence titration of labeled ParM with ATP. Format: binding. The note with it: Table 2; for ATP F+ATP/F−ATP: MDCC-ParM mutants; for ATP F+ATP/F−ATP / Kd: 20° C.; for Kd: highly purified ATP containing only 0.03% ADP. The procedure:
The MDCC fluorescence was excited at 431 nm and emission was recorded at 474 nm. The equilibrium dissociation constants were determined by fitting a quadratic binding curve to the data. For the plot the experimental fluorescence intensities were converted to the nucleotide bound fraction of ParM.
as §1
ADP and ATP were purchased from Sigma at the highest purity available. The purity of the nucleotides was analysed by HPLC using a Partisphere SAX column, 125×4.5 mm (Whatman). Nucleotide separation was performed isocratic with 0.3 M (NH4)2HPO4 buffer pH 4.0, 25% MeOH, and the absorbance at 260 nm was monitored.
as §2, §3

Data set [6] can be described thus: Stopped-flow kinetics of ADP binding and dissociation. To be noted: Table 3; for kon: ADP association, stopped-flow; for kon / koff: 20° C.; for Kd: calculated as koff/kon; for koff: displacement with unlabeled ParM.
The target of the next data set is PcrA helicase (Geobacillus stearothermophilus, UniProt P56255). Put plainly: Steady-state ATP hydrolysis by PcrA helicase monitored with the biosensor. To be noted: for initial rate of ADP generation: 3.8 μM dT16, 10 μM MDCC-ParM, 20° C. The data set is classed as biochemical, Bacillus stearothermophilus.
[7] abbreviates: 2 nM PcrA, 0.5 μM dT20, 5 μM MDCC-ParM, set of calibration curves.
[8] abbreviates: measured with phosphate biosensor MDCC-PBP.

B1: wild-type ParM: prokaryotic actin homologue encoded on Escherichia coli plasmid R1, accession P11904 (protein, listed as Escherichia coli)
chain: MLVFIDDGSTNIKLQWQESDGTIKQHISPNSFKREWAVSFGDKKVFNYTLNGEQYSFDPISPDAVVTTNIAWQYSDVNVVAVHHALLTSGLPVSEVDIVCTLPLTEYYDRNNQPNTENIERKKANFRKKITLNGGDTFTIKDVKVMPESIPAGYEVLQELDELDSLLIIDLGGTTLDISQVMGKLSGISKIYGDSSLGVSLVTSAVKDALSLARTKGSSYLADDIIIHRKDNNYLKQRINDENKISIVTEAMNEALRKLEQRVLNTLNEFSGYTHVMVIGGGAELICDAVKKHTQIRDERFFKTNNSQYDLVNGMYLIGN
In the case of B1, the “ATPase activity accelerated by polymerization” value in data set [1] is around 3 min⁻¹. Besides, the Kd in data set [2] was 2400 nM; in data set [3] (read-out: Kd for ethenoATP), 40 nM; in data set [3] (read-out: dissociation constant for ethenoATP), 40 nM. For the same molecule, in data set [3], the “ethenoATP bound tighter than ethenoADP” value is listed as 60 fold.

B2: E148R: MDCC-ParM (His6/I27C/E148R/C287A) (conjugate, UniProt P11904 1-320, looked up, variant I27C E148R C287A)
Plasmid segregation protein …: B1 chain with I27C, E148R, C287A
modifications: MDCC label, His6 tag
As to B2, the “ADP F+ADP/F−ADP” value in data set [4] was below 1.1. Moreover, the “ATP F+ATP/F−ATP” value in data set [5] is below 1.1.

B3: T175A: MDCC-ParM (His6/I27C/T175A/C287A) (conjugate, UniProt P11904 1-320, looked up, variant I27C T175A C287A)
Plasmid segregation protein …: B1 chain with I27C, T175A, C287A
modifications: MDCC label; His6 tag
With B3, in data set [4], the “ADP F+ADP/F−ADP” value was found to be 3.3 and the Kd was determined as 370 nM. Besides, in data set [5], the “Kd ratio ATP/ADP” value turned out to be 168, the “ATP F+ATP/F−ATP” value was 3.3 and the Kd amounted to 62000 nM.

B4: T175N: MDCC-ParM (His6/I27C/T175N/C287A) (conjugate, UniProt P11904 1-320, looked up, variant I27C T175N C287A)
Plasmid segregation protein …: B1 chain with I27C, T175N, C287A
modifications: MDCC label; His6 tag
B4: in data set [4], the “ADP F+ADP/F−ADP” value stood at 3.4 and the Kd came to 600 nM. For the same molecule, in data set [6], the kon is 640000 M⁻¹ s⁻¹, the Kd is 420 nM and the koff was determined as 0.27 s⁻¹. For the same molecule, in data set [5], the “Kd ratio ATP/ADP” value came to 307, the “ATP F+ATP/F−ATP” value was determined as 3.2 and the Kd came out at 184000 nM.

B5: T175L: MDCC-ParM (His6/I27C/T175L/C287A) (conjugate, UniProt P11904 1-320, looked up, variant I27C T175L C287A)
Plasmid segregation protein …: B1 chain with I27C, T175L, C287A
modifications: MDCC label; His6 tag
As to B5, in data set [4], the “ADP F+ADP/F−ADP” value came to 1.9 and the Kd was found to be 1570 nM. Further, in data set [6], the kon was determined as 340000 M⁻¹ s⁻¹, the Kd is 810 nM and the off-rate (koff) stood at 0.28 s⁻¹. For the same molecule, in data set [5], the “Kd ratio ATP/ADP” value worked out at 324, the “ATP F+ATP/F−ATP” value is reported as 2.3 and the Kd was 507000 nM.

B6: T174A T175A: MDCC-ParM (His6/I27C/T174A/T175A/C287A) (conjugate, UniProt P11904 1-320, looked up, variant I27C T174A T175A C287A)
Plasmid segregation protein …: B1 chain with I27C, T174A, T175A, C287A
modifications: MDCC label; His6 tag
As to B6, in data set [4], the “ADP F+ADP/F−ADP” value turned out to be 3.3 and the Kd came to 330 nM. In data set [6], the on-rate constant (kon) amounted to 980000 M⁻¹ s⁻¹, the Kd is 220 nM and the off-rate constant (koff) was 0.22 s⁻¹. Also, in data set [5], the “Kd ratio ATP/ADP” value is 324, the “ATP F+ATP/F−ATP” value is given as 3.2 and the Kd was 107000 nM.

B7: PcrA: DNA helicase from Bacillus stearothermophilus involved in plasmid replication (protein, UniProt P56255 1-724, looked up)
ATP-dependent DNA helicase …: MNFLSEQLLAHLNKEQQEAVRTTEGPLLIMAGAGSGKTRVLTHRIAYLMAEKHVAPWNILAITFTNKAAREMRERVQSLLGGAAEDVWISTFHSMCVRILRRDIDRIGINRNFSILDPTDQLSVMKTILKEKNIDPKKFEPRTILGTISAAKNELLPPEQFAKRASTYYEKVVSDVYQEYQQRLLRNHSLDFDDLIMTTIQLFDRVPDVLHYYQYKFQYIHIDEYQDTNRAQYTLVKKLAERFQNICAVGDADQSIYRWRGADIQNILSFERDYPNAKVILLEQNYRSTKRILQAANEVIEHNVNRKPKRIWTENPEGKPILYYEAMNEADEAQFVAGRIREAVERGERRYRDFAVLYRTNAQSRVMEEMLLKANIPYQIVGGLKFYDRKEIKDILAYLRVIANPDDDLSLLRIINVPKRGIGASTIDKLVRYAADHELSLFEALGELEMIGLGAKAAGALAAFRSQLEQWTQLQEYVSVTELVEEVLDKSGYREMLKAERTIEAQSRLENLDEFLSVTKHFENVSDDKSLIAFLTDLALISDLDELDGTEQAAEGDAVMLMTLHAAKGLEFPVVFLIGMEEGIFPHNRSLEDDDEMEEERRLAYVGITRAEEELVLTSAQMRTLFGNIQMDPPSRFLNEIPAHLLETASRRQAGASRPAVSRPQASGAVGSWKVGDRANHRKWGIGTVVSVRGGGDDQELDIAFPSPIGIKRLLAKFAPIEKV
As to B7, the “initial rate of ADP generation” value with PcrA helicase (1 nM PcrA, 5 μM ATP) came to 10.4 nM/s; with PcrA helicase (2 nM PcrA, 5 μM ATP), 19.9 nM/s. For the same molecule, the Km amounted to 1.6 µM in the data set with PcrA helicase (setting [7]) and 1.7 µM in the data set with PcrA helicase (setting [8]). The kcat was 13.7 s⁻¹ with PcrA helicase (setting [7]), 14.0 s⁻¹ with PcrA helicase (calibration at 15 μM total nucleotide concentration), 12.2 s⁻¹ in the data set with PcrA helicase (calibration in the absence of ATP) and 11.5 s⁻¹ in the data set with PcrA helicase (setting [8]). Also, the “steady state hydrolysis activity” value turned out to be 6.8 s⁻¹ with PcrA helicase (measured with MDCC-ParM, 5 μM ATP, background subtracted) and 7.2 s⁻¹ with PcrA helicase (setting [8]). In the data set with PcrA helicase (single calibration used for all ATP concentrations), the “Michaelis-Menten constant for ATP” value worked out at 1.4 µM.
